Data on 5 variants can be found in IntAct's records for PubMed 31515488.

B1: Four and a half LIM domains protein 2 (Homo sapiens), Q14192 (parent)
chain: MTERFDCHHCNESLFGKKYILREESPYCVVCFETLFANTCEECGKPIGCDCKDLSYKDRHWHEACFHCSQCRNSLVDKPFAAKEDQLLCTDCYSNEYSSKCQECKKTIMPGTRKMEYKGSSWHETCFICHRCQQPIGTKSFIPKDNQNFCVPCYEKQHAMQCVQCKKPITTGGVTYREQPWHKECFVCTACRKQLSGQRFTARDDFAYCLNCFCDLYAKKCAGCTNPISGLGGTKYISFEERQWHNDCFNCKKCSLSLVGRGFLTERDDILCPDCGKDI
partner: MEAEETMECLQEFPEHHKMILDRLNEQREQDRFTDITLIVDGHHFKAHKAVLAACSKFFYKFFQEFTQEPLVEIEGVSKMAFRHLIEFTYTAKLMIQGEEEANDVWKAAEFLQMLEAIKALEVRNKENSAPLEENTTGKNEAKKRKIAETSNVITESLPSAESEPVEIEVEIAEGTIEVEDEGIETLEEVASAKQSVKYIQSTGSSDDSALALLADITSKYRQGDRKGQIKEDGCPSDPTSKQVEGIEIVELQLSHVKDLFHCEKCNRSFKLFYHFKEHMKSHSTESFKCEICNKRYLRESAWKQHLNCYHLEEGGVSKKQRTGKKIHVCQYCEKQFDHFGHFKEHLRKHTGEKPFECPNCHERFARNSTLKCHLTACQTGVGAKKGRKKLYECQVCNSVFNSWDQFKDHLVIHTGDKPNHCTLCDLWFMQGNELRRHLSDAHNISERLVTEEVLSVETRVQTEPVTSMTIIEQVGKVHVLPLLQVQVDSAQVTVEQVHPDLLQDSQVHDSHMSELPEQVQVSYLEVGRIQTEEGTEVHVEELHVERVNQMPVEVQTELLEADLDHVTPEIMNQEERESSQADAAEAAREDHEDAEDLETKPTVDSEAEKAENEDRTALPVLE
B2: Zinc finger protein 165 (Homo sapiens), P49910 (parent)
chain: MATEPKKAAAQNSPEDEGLLIVKIEEEEFIHGQDTCLQRSELLKQELCRQLFRQFCYQDSPGPREALSRLRELCCQWLKPEIHTKEQILELLVLEQFLTILPGDLQAWVHEHYPESGEEAVTILEDLERGTDEAVLQVQAHEHGQEIFQKKVSPPGPALNVKLQPVETKAHFDSSEPQLLWDCDNESENSRSMPKLEIFEKIESQRIISGRISGYISEASGESQDICKSAGRVKRQWEKESGESQRLSSAQDEGFGKILTHKNTVRGEIISHDGCERRLNLNSNEFTHQKSCKHGTCDQSFKWNSDFINHQIIYAGEKNHQYGKSFKSPKLAKHAAVFSGDKTHQCNECGKAFRHSSKLARHQRIHTGERCYECNECGKSFAESSDLTRHRRIHTGERPFGCKECGRAFNLNSHLIRHQRIHTREKPYECSECGKTFRVSSHLIRHFRIHTGEKPYECSECGRAFSQSSNLSQHQRIHMRENLLM
partner: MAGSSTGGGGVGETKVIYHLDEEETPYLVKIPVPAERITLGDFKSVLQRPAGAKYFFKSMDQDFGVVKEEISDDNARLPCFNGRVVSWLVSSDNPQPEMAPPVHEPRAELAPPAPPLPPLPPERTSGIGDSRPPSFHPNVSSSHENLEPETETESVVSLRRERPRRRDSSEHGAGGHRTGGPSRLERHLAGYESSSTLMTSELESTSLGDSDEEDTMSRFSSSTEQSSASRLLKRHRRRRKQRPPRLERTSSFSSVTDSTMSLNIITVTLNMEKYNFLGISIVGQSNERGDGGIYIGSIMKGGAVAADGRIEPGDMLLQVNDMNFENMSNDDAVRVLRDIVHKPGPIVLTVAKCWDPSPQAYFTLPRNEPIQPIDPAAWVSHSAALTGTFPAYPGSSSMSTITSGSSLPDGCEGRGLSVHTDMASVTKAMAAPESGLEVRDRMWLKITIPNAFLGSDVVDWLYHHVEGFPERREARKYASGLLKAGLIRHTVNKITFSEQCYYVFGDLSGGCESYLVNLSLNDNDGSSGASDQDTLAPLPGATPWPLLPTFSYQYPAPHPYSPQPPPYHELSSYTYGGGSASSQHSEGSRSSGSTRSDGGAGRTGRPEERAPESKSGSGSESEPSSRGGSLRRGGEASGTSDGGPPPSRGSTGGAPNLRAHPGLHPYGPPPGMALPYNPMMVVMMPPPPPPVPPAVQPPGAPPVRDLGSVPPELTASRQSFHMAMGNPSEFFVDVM
B3: Nuclear receptor-interacting protein 1 (Homo sapiens), P48552 (parent)
chain: MTHGEELGSDVHQDSIVLTYLEGLLMHQAAGGSGTAVDKKSAGHNEEDQNFNISGSAFPTCQSNGPVLNTHTYQGSGMLHLKKARLLQSSEDWNAAKRKRLSDSIMNLNVKKEALLAGMVDSVPKGKQDSTLLASLLQSFSSRLQTVALSQQIRQSLKEQGYALSHDSLKVEKDLRCYGVASSHLKTLLKKSKVKDQKPDTNLPDVTKNLIRDRFAESPHHVGQSGTKVMSEPLSCAARLQAVASMVEKRASPATSPKPSVACSQLALLLSSEAHLQQYSREHALKTQNANQAASERLAAMARLQENGQKDVGSYQLPKGMSSHLNGQARTSSSKLMASKSSATVFQNPMGIIPSSPKNAGYKNSLERNNIKQAANNSLLLHLLKSQTIPKPMNGHSHSERGSIFEESSTPTTIDEYSDNNPSFTDDSSGDESSYSNCVPIDLSCKHRTEKSESDQPVSLDNFTQSLLNTWDPKVPDVDIKEDQDTSKNSKLNSHQKVTLLQLLLGHKNEENVEKNTSPQGVHNDVSKFNTQNYARTSVIESPSTNRTTPVSTPPLLTSSKAGSPINLSQHSLVIKWNSPPYVCSTQSEKLTNTASNHSMDLTKSKDPPGEKPAQNEGAQNSATFSASKLLQNLAQCGMQSSMSVEEQRPSKQLLTGNTDKPIGMIDRLNSPLLSNKTNAVEENKAFSSQPTGPEPGLSGSEIENLLERRTVLQLLLGNPNKGKSEKKEKTPLRDESTQEHSERALSEQILMVKIKSEPCDDLQIPNTNVHLSHDAKSAPFLGMAPAVQRSAPALPVSEDFKSEPVSPQDFSFSKNGLLSRLLRQNQDSYLADDSDRSHRNNEMALLESKNLCMVPKKRKLYTEPLENPFKKMKNNIVDAANNHSAPEVLYGSLLNQEELKFSRNDLEFKYPAGHGSASESEHRSWARESKSFNVLKQLLLSENCVRDLSPHRSNSVADSKKKGHKNNVTNSKPEFSISSLNGLMYSSTQPSSCMDNRTFSYPGVVKTPVSPTFPEHLGCAGSRPESGLLNGCSMPSEKGPIKWVITDAEKNEYEKDSPRLTKTNPILYYMLQKGGNSVTSRETQDKDIWREASSAESVSQVTAKEELLPTAETKASFFNLRSPYNSHMGNNASRPHSANGEVYGLLGSVLTIKKESE
partner: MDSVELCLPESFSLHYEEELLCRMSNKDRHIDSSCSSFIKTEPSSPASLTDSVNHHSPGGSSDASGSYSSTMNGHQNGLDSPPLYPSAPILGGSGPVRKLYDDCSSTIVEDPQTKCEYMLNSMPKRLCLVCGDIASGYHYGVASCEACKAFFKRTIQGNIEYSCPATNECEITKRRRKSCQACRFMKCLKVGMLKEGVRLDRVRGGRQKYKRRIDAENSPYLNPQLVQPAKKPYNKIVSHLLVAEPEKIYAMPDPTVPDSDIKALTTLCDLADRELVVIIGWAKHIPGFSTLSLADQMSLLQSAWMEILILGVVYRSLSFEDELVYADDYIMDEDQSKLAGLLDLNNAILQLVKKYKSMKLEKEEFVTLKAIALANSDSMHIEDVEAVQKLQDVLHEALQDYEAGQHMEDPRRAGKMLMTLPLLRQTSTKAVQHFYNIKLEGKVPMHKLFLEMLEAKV
B4: Conserved oligomeric Golgi complex subunit 7 (Homo sapiens), P83436 (parent)
chain: MDFSKFLADDFDVKEWINAAFRAGSKEAASGKADGHAATLVMKLQLFIQEVNHAVEETSHQALQNMPKVLRDVEALKQEASFLKEQMILVKEDIKKFEQDTSQSMQVLVEIDQVKSRMQLAAESLQEADKWSTLSADIEETFKTQDIAVISAKLTGMQNSLMMLVDTPDYSEKCVHLEALKNRLEALASPQIVAAFTSQAVDQSKVFVKVFTEIDRMPQLLAYYYKCHKVQLLAAWQELCQSDLSLDRQLTGLYDALLGAWHTQIQWATQVFQKPHEVVMVLLIQTLGALMPSLPSCLSNGVERAGPEQELTRLLEFYDATAHFAKGLEMALLPHLHEHNLVKVTELVDAVYDPYKPYQLKYGDMEESNLLIQMSAVPLEHGEVIDCVQELSHSVNKLFGLASAAVDRCVRFTNGLGTCGLLSALKSLFAKYVSDFTSTLQSIRKKCKLDHIPPNSLFQEDWTAFQNSIRIIATCGELLRHCGDFEQQLANRILSTAGKYLSDSCSPRSLAGFQESILTDKKNSAKNPWQEYNYLQKDNPAEYASLMEILYTLKEKGSSNHNLLAAPRAALTRLNQQAHQLAFDSVFLRIKQQLLLISKMDSWNTAGIGETLTDELPAFSLTPLEYISNIGQYIMSLPLNLEPFVTQEDSALELALHAGKLPFPPEQGDELPELDNMADNWLGSIARATMQTYCDAILQIPELSPHSAKQLATDIDYLINVMDALGLQPSRTLQHIVTLLKTRPEDYRQVSKGLPRRLATTVATMRSVNY

One assay covers variants of B1. As to conditions: with zn131_human ZNF131, P52739.
As for MTERFDCHHCNESLFGKKYILREESPYCVVCFETLFANTCEECGKPIGCDCKDLSYKDRHWHEACFHCSQCRNSLVDKPFAAKEDQLLCTDCYSKEYSSKCQECKKTIMPGTRKMEYKGSSWHETCFICHRCQQPIGTKSFIPKDNQNFCVPCYEKQHAMQCVQCKKPITTGGVTYREQPWHKECFVCTACRKQLSGQRFTARDDFAYCLNCFCDLYAKKCAGCTNPISGLGGTKYISFEERQWHNDCFNCKKCSLSLVGRGFLTERDDILCPDCGKDI [N95K], the “effect of a mutation on the interaction” value is given as “with no effect”.

The variants in a further assay derive from B2. The following applies: with dvl2_human DVL2, O14641.
As to MATEPKKAAAQNSPEDEGLLIVKIEEEEFIHGQDTCLQRSELLKQELCRQLFRQFCYQDSPGPREALSCLRELCCQWLKPEIHTKEQILELLVLEQFLTILPGDLQAWVHEHYPESGEEAVTILEDLERGTDEAVLQVQAHEHGQEIFQKKVSPPGPALNVKLQPVETKAHFDSSEPQLLWDCDNESENSRSMPKLEIFEKIESQRIISGRISGYISEASGESQDICKSAGRVKRQWEKESGESQRLSSAQDEGFGKILTHKNTVRGEIISHDGCERRLNLNSNEFTHQKSCKHGTCDQSFKWNSDFINHQIIYAGEKNHQYGKSFKSPKLAKHAAVFSGDKTHQCNECGKAFRHSSKLARHQRIHTGERCYECNECGKSFAESSDLTRHRRIHTGERPFGCKECGRAFNLNSHLIRHQRIHTREKPYECSECGKTFRVSSHLIRHFRIHTGEKPYECSECGRAFSQSSNLSQHQRIHMRENLLM [R69C], the “effect of a mutation on the interaction” value is listed as “with no effect”.

Take MATEPKKAAAQNSPEDEGLLIVKIEEEEFIHGQDTCLQRSELLKQELCRQLFRQFCYQDSPGPREALSRLRELCCQWLKPEIHTKEQILELLVLEQFLTILPGDLQAWVHEHYPESGEEAVTILEDLERGTDEAVLQVQAHEHGQEIFQKKVSPPGPALNVKLQPVETKAHFDSSEPQLLWDCDNESENSRSMPKLEIFEKIESQRIISGRISGYISEASGESQDICKSAGRVKRQWEKESGESQRLSSAQDEGFGKILTHKNTVRGEIISHDGCERRLNLNSNEFTHQKSCKHGTCDQSFKWNSDFINHQIIYAGEKNHQYGKSFKSPKLAKHAAVFSGDKTHQCYECGKAFRHSSKLARHQRIHTGERCYECNECGKSFAESSDLTRHRRIHTGERPFGCKECGRAFNLNSHLIRHQRIHTREKPYECSECGKTFRVSSHLIRHFRIHTGEKPYECSECGRAFSQSSNLSQHQRIHMRENLLM [N347Y]: the “effect of a mutation on the interaction” value was “with no effect”.

Variants of B3 are the subject of a further assay. As to conditions: with err3_human ESRRG.
As for K385I, the “effect of a mutation on the interaction” value is reported as “with no effect”.

In the next assay the parent is B4. As to conditions: with taxb1_human TAX1BP1, Q86VP1.
Chain of taxb1_human TAX1BP1, Q86VP1 (Q86VP1 whole entry): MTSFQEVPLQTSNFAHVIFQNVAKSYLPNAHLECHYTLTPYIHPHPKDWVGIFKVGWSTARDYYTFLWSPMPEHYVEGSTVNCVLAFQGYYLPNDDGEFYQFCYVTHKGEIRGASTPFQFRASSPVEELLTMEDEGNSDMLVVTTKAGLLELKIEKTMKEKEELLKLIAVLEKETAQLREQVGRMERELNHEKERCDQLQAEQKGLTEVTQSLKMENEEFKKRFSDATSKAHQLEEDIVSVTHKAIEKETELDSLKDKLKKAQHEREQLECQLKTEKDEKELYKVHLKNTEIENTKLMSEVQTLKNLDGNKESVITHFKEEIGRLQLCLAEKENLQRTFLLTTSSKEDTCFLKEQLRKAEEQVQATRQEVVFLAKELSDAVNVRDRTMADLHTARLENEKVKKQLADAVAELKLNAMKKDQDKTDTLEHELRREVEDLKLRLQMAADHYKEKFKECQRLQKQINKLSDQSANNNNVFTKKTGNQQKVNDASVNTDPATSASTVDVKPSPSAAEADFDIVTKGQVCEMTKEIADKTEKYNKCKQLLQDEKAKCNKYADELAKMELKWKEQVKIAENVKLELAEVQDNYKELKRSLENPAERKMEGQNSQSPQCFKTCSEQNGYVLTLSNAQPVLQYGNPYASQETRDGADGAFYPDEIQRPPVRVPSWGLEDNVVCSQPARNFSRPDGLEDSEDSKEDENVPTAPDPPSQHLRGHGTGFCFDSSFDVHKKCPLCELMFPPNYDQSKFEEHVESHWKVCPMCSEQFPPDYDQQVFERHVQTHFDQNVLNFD
Take Q749K: the “effect of a mutation on the interaction” value is on record as “with no effect”.
